Patent US20120028900A1
pKd: −log10 of the molar value. One block for each substance: values may come before it.

Assays:
[1] = target: IR8 (90/b/73 R336I/R562K/R740A; del795-1688/Arg336Iso/Arg562Lys/Arg740Ala) (human) (UniProt P00451); test: biosensor; IR8 (30 nM) captured on immobilised Mab NMC-VIII/5, vWF added at 10 nM
[2] = target: A1/A3-C1-C2 heterodimer of thrombin-cleaved FVIII (human) (UniProt P00451); test: optical biosensor, after thrombin cleavage of purified protein
[3] = target: FVIII mutant L/L 2251/2252 L/S (L2252S) (UniProt P00451)
[4] = target: FVIII mutant M/F 2199/2200 W/W (UniProt P00451)
[5] = target: FVIII mutant M/F/L 2199/2200/2252 W/W/S (UniProt P00451)
[6] = target: von Willebrand factor (vWF) (human) (UniProt P04275); test: ELISA and affinity biosensor analysis
[7] = target: von Willebrand factor (vWF) (human) (UniProt P04275); test: summary of ELISA and biosensor results
[8] = target: von Willebrand factor (vWF) (human) (UniProt P04275); test: FVIII-vWF binding ELISA; anti-A2 domain trap, vWF from FVIII-deficient plasma, peroxidase anti-vWF detection
[9] = target: IR8 (90/b/73 R336I/R562K/R740A; del795-1688/Arg336Iso/Arg562Lys/Arg740Ala) (human) (UniProt P00451); test: cell-based or functional assay
[10] = target: wild-type FVIII (human) (UniProt P00451); test: cell-based or functional assay
[11] = target: von Willebrand factor (vWF) (human) (UniProt P04275); test: in vitro binding to vWF; method not given

- fold increased rate of A2 subunit dissociation compared to a B domainless FVIII control [2]: 3 fold
Substance: A2 subunit of thrombin-cleaved R698W B-domainless FVIII (from UniProt P00451 392-759)

- fold reduced affinity compared to rFVIII [6]: 20 fold
- fold lower affinity than FVIII WT [7]: > 10 fold
- fold lower binding affinity compared to wild-type FVIII [8]: 10 fold
Substance: IR8 (90/b/73 R336I/R562K/R740A; del795-1688/Arg336Iso/Arg562Lys/Arg740Ala) (from UniProt P00451 20-812; P00451 1708-2351)

- fold increased rate of A2 subunit dissociation compared to a B domainless FVIII control [2]: 2 fold
Substance: A2 subunit of thrombin-cleaved R698L B-domainless FVIII (from UniProt P00451 392-759)

- pKd [11]: 8.89
- fold lower binding affinity compared to wild-type FVIII [8]: 2 fold
Substance: IR8/ESH8 complex (from UniProt P00451 20-812; P00451 1708-2351)

- pKd [11]: 9.52
Substance: wild-type FVIII (from UniProt P00451 20-2351)

Further lines, the substance ahead of its results:

Substance: von Willebrand factor (vWF) (from UniProt P04275 764-2813)
- pKd [1]: 7.53
- koff [1]: 0.0042 s⁻¹
- kon [1]: 140000 M⁻¹ s⁻¹

Substance: factor IXa
- apparent affinity for factor IXa, Xase assay with 15% PS [3]: reduced 5-fold
- apparent affinity of factor IXa, Xase assay with saturating PL, 1000 uM [3]: decreased approximately 4-fold
- apparent affinity for factor IXa, Xase assay with 15% PS [4]: reduced 5-fold
- apparent affinity of factor IXa, Xase assay with saturating PL, 1000 uM [4]: decreased approximately 4-fold
- apparent affinity for factor IXa, Xase assay with 15% PS [5]: reduced 5-fold
- apparent affinity of factor IXa, Xase assay with saturating PL, 1000 uM [5]: decreased approximately 4-fold

Substance: ESH8, mouse monoclonal anti-light chain factor VIII antibody (American Diagnostica)
- % Of Initial Activity, +ESH8 (APTT after 4 hour incubation at 37 C with FVIII-deficient plasma) [9]: 120%
- % Of Initial Activity, +ESH8 (APTT after 4 hour incubation at 37 C with FVIII-deficient plasma) [10]: 29%
